Patent publication US20220348666A1 (SUZHOU CONNECT BIOPHARMACEUTICALS, published 2022)
Where “and” joins values, the source holds several entries; their conditions need not be identical. Identical values can stand only once.

What was measured:
[1] = target: T1, human interleukin-4 receptor alpha on HEK Blue IL4/IL13 cells (human, UniProt P24394 26-825); test: cell-based or functional assay
T1 sequence (looked up): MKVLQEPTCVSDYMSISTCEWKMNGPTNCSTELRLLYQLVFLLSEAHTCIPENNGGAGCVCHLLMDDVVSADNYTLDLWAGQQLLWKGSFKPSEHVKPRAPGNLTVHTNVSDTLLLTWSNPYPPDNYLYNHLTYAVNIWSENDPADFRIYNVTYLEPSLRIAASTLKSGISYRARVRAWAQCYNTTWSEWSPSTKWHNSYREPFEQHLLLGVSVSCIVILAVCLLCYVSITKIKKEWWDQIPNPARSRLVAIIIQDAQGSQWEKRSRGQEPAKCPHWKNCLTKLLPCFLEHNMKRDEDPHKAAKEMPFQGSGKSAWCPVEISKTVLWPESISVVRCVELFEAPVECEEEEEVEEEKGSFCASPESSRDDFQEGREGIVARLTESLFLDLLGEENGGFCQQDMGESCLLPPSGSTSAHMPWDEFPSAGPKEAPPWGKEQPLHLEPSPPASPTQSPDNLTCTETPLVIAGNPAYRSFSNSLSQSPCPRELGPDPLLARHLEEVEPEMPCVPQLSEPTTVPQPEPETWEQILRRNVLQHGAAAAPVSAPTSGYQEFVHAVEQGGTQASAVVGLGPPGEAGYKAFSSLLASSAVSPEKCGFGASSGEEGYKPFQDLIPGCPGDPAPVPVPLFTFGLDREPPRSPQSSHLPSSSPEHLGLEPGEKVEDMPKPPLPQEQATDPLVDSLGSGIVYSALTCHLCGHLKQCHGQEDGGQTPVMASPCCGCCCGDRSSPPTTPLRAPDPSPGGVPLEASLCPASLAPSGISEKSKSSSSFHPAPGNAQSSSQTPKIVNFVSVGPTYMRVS

[2] = target: T2, sIL-4Rα (antigen, expressed according to NM_000418.4) (human, UniProt P24394 26-232, limits assumed); test: indirect ELISA, sIL-4Rα coated on plate, enzyme labeled secondary antibody, run 1
T2 construct: Soluble form coated on the ELISA plate; also called human interleukin-4 receptor alpha
T2 sequence (looked up): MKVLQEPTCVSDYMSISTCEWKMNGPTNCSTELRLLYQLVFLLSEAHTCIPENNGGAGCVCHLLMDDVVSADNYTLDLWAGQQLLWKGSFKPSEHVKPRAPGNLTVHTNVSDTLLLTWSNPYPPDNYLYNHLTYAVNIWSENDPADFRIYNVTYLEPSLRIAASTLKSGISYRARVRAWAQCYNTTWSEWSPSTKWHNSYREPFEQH
Protocol: (§1) The antigen (sIL-4Rα, expressed according to NM_000418.4) was coated and absorbed on a solid phase plate for ELISA, and then plate was washed, blocked and washed again before adding the samples to be tested for binding with the antigen. The samples to be tested were dilutions of the formulation prepared according to Example 6 of the present application, and the dilutions were obtained by diluting the formulation with 1% BSA to an antibody concentration of 1000 ng/mL, and subsequently performing a gradient dilution from an initial concentration of 1000 ng/mL to a concentration of 0 ng/mL. The unbound antibody was removed through washing after incubation, and an enzyme labeled secondary antibody was added for further incubation. After the unbound enzyme labeled secondary antibody was removed through washing, enzyme reaction substrate was added for color developing. Finally, the reaction was stopped by adding a stop solution, and absorbance values were read at 450 nm and 655 nm on a microplate reader. According to the absorbance values, half effective concentration EC₅₀ was calculated by curve fitting.

[3] = target: T2, sIL-4Rα (antigen, expressed according …); test: indirect ELISA, sIL-4Rα coated on plate, enzyme labeled secondary antibody, run 2
Protocol: as §1

[4] = target: T2, sIL-4Rα (antigen, expressed according …); test: indirect ELISA, sIL-4Rα coated on plate, enzyme labeled secondary antibody, run 3
Protocol: as §1

[5] = target: T2, sIL-4Rα (antigen, expressed according …); test: indirect ELISA, sIL-4Rα coated on plate, enzyme labeled secondary antibody, run 4
Protocol: as §1

[6] = target: T2, sIL-4Rα (antigen, expressed according …); test: indirect ELISA, sIL-4Rα coated on plate, enzyme labeled secondary antibody, run 5
Protocol: as §1

[7] = target: T2, sIL-4Rα (antigen, expressed according …); test: indirect ELISA, sIL-4Rα coated on plate, enzyme labeled secondary antibody, run 6
Protocol: as §1

[8] = target: T2, sIL-4Rα (antigen, expressed according …); test: indirect ELISA, sIL-4Rα coated on plate, enzyme labeled secondary antibody, average value of 6 runs
Protocol: as §1

B1: CBP-201 (antibody, human IgG4 S228P, kappa, V domains shown)
VH: EVQLVESGGGLVQPGGSLRLSCAASGFTFSRNAMFWVRQAPGKGLEWVSGIGTGGATSYADSVKGRFTISRDNAKNSLYLQMNSLRAEDTAVYYCARGRYYFDYWGQGTLVTVSS
VL: EIVLTQSPGTLSLSPGERATLSCRASQSVSSSYLAWYQQKPGQAPRLLIYGASSRATGIPDRFSGSGSGTDFTLTISRLEPEDFAVYYCQQYDHSAGWTFGQGTKVEIKR
notes: Monoclonal antibody; also called CBP-201 antibody; CBP-201 formulation
For B1, the “IC50 (average value) of blocking STAT-6 signal transduction, HEK Blue IL4/IL13 cells with 0.5 ng/mL IL4, Quanti-blue absorbance at 650 nM” value [1] was 4.19 ng/mL and 4.51 ng/mL, the EC50 [2] was 1.59 ng/mL and 1.4 ng/mL and the EC50 [3] was 1.52 ng/mL and 1.28 ng/mL. The EC50 [4] was 1.84 ng/mL and 1.77 ng/mL, the EC50 [5] was 1.85 ng/mL and 1.8 ng/mL and the EC50 [6] was 1.77 ng/mL and 1.84 ng/mL. For the same binder, the EC50 [7] was 1.53 ng/mL and 1.45 ng/mL and the EC50 [8] was 1.69 ng/mL and 1.56 ng/mL.
